Measurements reported in US8431396B2, “Anti-angiogenic peptides” (The Cleveland Clinic Foundation, priority 2003, dated 2013).

B2: recombinant human TIMP3 (tissue inhibitor of metalloproteinases-3) (other)
chain: CTCSPSHPQDAFCNSDIVIRAKVVGKKLVKEGPFGTLVYTIKQMKMYRGFTKMPHVQYIHTEASESLCGLKLEVNKYQYLLTGRVYDGKMYTGLCNFVERWDQLTLSQRKGLNYRYHLGCNCKIKSCYYLPCFVTSKNECLWTDMLSNFGYPGYQSKHYACIRQKGGYCSWYRGWAPPDKSIINATDP
notes: Radio-iodinated in some assays; also called rTIMP3; recombinant TIMP3

Columns and labels:
VEGF = target: T1, VEGF (Homo sapiens, UniProt P15692); test: Solid-phase direct binding of [125I]VEGF to wells coated with TIMPs
T1 construct: purchased Genentech (gift, not bought)
T1 sequence (P15692 27-191 isoform P15692-4): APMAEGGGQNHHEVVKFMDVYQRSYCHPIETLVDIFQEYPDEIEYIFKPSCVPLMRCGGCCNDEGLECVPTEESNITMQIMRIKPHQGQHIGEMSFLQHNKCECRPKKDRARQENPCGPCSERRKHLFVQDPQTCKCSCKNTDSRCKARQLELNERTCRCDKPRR

PAE-KDR cells = test: Endothelial cell migration toward VEGF (modified Boyden chamber); format: cell-based, porcine; conditions: added exogenously; VEGF165 10 ng/ml
Description: (B) Comparison of the effects of rTIMP3, rTIMP1 and BB3103 on VEGF165-induced migration of PAE-KDR cells. […] In all migration experiments, migrating cell number is expressed as mean±s.e.m. of quadruplicate samples. All experiments were done in triplicate. Open symbols, KDR-vector; closed symbols, KDR-TIMP3.*, P<0.01; **, P<0.05.
A modified Boyden chamber assay for migration and proliferation assays were carried out as described.

[1] = system: chick embryo chorioallantoic membrane (CAM); test: Chick embryo chorioallantoic membrane (CAM) assay of VEGF-mediated angiogenesis; format: in vivo, chicken
From the text: The CAM assay was done as described with slight modifications. Fertilized 3-day-old white Leghorn eggs (Sunnyside, Beaver Dam, Wis.) were cracked and embryos with the yolk intact were placed in glass-bottomed Petri dishes. […] Angiogenesis was reported as the angiogenic index (mean number of tertiary branchpoints from experimental conditions minus the mean number of branchpoints from buffer controls with no angiogenic stimulator).

KDR = target: T2, KDR (Homo sapiens, UniProt P35968); test: [125I]VEGF binding to the surface of PAE-KDR cells; conditions: same conditions as TIMP3
T2 construct: To determine whether these receptor isoforms represent full-length VEGFR-2; expressed in transfected cells; host or cells: porcine aortic endothelial (PAE) cells
T2 sequence (P35968 20-1356): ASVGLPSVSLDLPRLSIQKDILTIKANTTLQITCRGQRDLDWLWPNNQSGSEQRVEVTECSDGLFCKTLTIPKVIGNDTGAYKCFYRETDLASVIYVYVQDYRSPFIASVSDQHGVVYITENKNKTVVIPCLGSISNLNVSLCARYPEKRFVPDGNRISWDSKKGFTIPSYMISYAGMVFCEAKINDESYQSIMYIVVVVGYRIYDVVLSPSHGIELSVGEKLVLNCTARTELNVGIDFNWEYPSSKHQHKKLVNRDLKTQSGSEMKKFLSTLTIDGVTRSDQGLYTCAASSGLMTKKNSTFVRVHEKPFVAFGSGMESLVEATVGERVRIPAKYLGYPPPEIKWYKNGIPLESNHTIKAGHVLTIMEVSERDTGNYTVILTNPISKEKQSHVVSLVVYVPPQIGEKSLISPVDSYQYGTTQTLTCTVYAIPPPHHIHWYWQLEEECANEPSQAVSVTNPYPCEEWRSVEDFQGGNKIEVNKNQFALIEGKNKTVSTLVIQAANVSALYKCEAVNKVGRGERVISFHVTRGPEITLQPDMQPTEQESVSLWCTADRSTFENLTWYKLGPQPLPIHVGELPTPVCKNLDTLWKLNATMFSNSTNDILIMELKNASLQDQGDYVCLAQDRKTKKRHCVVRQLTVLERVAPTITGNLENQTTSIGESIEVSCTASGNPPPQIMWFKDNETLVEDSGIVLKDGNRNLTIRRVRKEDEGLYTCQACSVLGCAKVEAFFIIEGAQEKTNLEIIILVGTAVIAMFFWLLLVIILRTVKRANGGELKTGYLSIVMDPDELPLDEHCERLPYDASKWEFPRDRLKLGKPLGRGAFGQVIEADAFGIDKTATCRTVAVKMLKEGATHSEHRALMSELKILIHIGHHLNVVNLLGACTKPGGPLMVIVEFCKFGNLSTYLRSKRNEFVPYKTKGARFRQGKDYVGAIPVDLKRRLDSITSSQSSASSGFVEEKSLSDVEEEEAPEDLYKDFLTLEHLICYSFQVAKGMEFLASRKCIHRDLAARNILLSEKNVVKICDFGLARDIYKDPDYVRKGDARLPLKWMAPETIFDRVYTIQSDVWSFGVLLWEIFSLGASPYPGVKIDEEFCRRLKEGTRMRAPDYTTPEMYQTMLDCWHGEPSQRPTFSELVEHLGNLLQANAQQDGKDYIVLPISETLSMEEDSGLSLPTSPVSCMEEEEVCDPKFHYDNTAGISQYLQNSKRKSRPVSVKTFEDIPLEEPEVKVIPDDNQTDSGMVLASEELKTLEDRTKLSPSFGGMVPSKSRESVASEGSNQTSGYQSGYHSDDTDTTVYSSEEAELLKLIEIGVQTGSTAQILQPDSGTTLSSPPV
Description: Radioligand binding is expressed as percent binding and is the mean±s.e.m. of triplicate samples. […] All values are expressed as mean±s.e.m. of triplicate samples. […] Binding is expressed as mean±s.e.m.
Data were analyzed by Scatchard plot analyses.

VEGFR1 (FLT-1) = VEGFR1 (FLT-1) (Homo sapiens, UniProt P17948); conditions: read-out: Kd of VEGF binding to VEGFR1; cited from earlier work
VEGFR1 (FLT-1), sequence (P17948 27-1338, species assumed): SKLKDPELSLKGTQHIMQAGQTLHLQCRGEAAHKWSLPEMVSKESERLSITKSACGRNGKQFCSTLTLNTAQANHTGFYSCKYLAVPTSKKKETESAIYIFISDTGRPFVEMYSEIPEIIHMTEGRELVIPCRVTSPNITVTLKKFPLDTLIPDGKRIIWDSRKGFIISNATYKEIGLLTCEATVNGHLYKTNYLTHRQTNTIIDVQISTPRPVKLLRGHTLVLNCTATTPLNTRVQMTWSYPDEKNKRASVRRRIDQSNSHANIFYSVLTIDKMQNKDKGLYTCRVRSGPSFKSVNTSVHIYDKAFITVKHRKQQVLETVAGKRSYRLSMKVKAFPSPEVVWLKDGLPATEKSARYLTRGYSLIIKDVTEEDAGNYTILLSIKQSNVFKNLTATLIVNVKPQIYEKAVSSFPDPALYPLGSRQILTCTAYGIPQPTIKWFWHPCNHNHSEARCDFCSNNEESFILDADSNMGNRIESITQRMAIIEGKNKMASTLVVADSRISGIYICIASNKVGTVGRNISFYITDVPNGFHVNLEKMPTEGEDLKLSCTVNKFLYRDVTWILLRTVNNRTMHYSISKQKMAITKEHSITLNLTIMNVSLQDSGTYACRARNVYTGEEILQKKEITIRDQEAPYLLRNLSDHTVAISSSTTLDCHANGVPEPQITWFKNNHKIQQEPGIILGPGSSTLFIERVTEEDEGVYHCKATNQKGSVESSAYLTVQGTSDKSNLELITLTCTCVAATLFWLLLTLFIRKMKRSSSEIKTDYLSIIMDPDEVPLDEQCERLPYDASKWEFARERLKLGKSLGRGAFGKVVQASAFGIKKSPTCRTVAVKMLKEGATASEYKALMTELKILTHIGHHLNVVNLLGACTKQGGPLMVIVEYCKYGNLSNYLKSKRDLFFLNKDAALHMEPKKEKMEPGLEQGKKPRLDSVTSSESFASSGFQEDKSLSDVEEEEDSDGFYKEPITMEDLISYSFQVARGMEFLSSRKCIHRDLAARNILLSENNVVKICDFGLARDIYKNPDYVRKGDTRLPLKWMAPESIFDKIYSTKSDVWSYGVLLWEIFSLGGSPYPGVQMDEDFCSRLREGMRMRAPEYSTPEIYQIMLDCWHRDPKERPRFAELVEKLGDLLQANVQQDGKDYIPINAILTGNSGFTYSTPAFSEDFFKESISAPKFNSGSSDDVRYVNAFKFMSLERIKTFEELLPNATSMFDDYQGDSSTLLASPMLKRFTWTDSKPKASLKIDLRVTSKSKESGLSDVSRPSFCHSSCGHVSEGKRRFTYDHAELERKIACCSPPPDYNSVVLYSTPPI

PAEKDR cells [2] = test: VEGF-stimulated migration (modified Boyden chamber) of transfected PAEKDR cells; format: cell-based, porcine; conditions: mock cells
Description: A modified Boyden chamber assay was carried out as described previously 34. Briefly, 8.0 μm pore PVPF polycarbonate membranes were pre-coated with 100 μg/ml collagen type I in 0.2 N acetic acid (Cohesion technologies, INC. Pala Alto, Calif.). […] Chamber was then incubated for 4 hrs at 37° C. in a 5% CO2 humidified incubator. Cells remaining on the top of the filter were removed. Cells on the bottom surface of the filter were fixed, stained and mounted. The number of migrating cells per well was counted microscopically.

PAEKDR cells [3] = test: VEGF-stimulated proliferation ([3H]thymidine) of transfected PAEKDR cells; format: cell-based, porcine; conditions: mock cells
Description: Cells were seeded at a density of 5000 cells/well in 24 well culture plates and cultured for 24 h in growth medium. […] High molecular weight DNA was precipitated using 5% trichloroacetic acid at 4° C. for 30 min After two washes with ice-cold H2O, 3H radioactivity was solubilized in 1 N NaOH for 20 min at room temperature, acidified by addition of 2 N HCl, and measured using a liquid scintillation counter. Each sample was assayed in triplicate and the assays were repeated at least twice.

endothelial cells = test: Competitive displacement of [125I]TIMP3 from the surface of endothelial cells; format: binding; conditions: unlabeled VEGF 2 μg/ml, TIMP3 10 μg/ml
Description: Immunoprecipitation of cell lysates with antibodies specific for TIMP3 was followed by immunoblotting with antibodies specific for KDR (top). As a control for KDR receptor, cell lysates were immunoprecipitated with anti-bodies specific for KDR and probed with antibodies specific for KDR Immunoprecipitation with antibodies specific for KDR and immunoblotting with antibodies specific for TIMP3 (bottom) were carried out on PAE-KDR cells exposed to recombinant TIMP3 or PAE-KDR-vector and PAE-KDR cells overexpressing TIMP3, to confirm the interaction. […] Competition with unlabeled TIMP3 was carried out to ensure specificity. […] (E) In vivo interaction of KDR and TIMP3 in human placenta. Immunoprecipitation using antibodies specific TIMP3 (top) and KDR (bottom) was followed by immunoblotting with antibodies specific for KDR (top) and TIMP3 (bottom).

[4] = system: Choroidal Neovascularization (CNV); test: Laser-induced choroidal neovascularization (CNV) mouse model of AMD; format: in vivo, C57BL6 mice; conditions: single intravitreal injection on day 3; examined 14 days after laser
Description: We next tested the ability of intravitreal TIMP-3 tail and loop 6 peptide to inhibit Choroidal Neovascularization (CNV), a mouse model of age-related macular degeneration (AMD). C57BL6 mice (n=5) in each each group were lasered to induce CNV. On day 3 intravitreal injections [single dose] of control N terminal peptide (116) or TIMP-3 peptides (Tail peptide (SEQ ID NO: 13), Loop 6 (SEQ ID NO: 12), and Loop 5 (SEQ ID NO: 11) were administered. Animals were sacrificed at 14 days following laser and whole mount retinas were examined for evidence of CNV following injection of fluorescein dextran marker.

KDR (VEGFR2) = KDR (VEGFR2) (Homo sapiens, UniProt P35968); test: ELISA of sKDR binding to VEGF-coated plates
KDR (VEGFR2), sequence (P35968 20-764 limits assumed): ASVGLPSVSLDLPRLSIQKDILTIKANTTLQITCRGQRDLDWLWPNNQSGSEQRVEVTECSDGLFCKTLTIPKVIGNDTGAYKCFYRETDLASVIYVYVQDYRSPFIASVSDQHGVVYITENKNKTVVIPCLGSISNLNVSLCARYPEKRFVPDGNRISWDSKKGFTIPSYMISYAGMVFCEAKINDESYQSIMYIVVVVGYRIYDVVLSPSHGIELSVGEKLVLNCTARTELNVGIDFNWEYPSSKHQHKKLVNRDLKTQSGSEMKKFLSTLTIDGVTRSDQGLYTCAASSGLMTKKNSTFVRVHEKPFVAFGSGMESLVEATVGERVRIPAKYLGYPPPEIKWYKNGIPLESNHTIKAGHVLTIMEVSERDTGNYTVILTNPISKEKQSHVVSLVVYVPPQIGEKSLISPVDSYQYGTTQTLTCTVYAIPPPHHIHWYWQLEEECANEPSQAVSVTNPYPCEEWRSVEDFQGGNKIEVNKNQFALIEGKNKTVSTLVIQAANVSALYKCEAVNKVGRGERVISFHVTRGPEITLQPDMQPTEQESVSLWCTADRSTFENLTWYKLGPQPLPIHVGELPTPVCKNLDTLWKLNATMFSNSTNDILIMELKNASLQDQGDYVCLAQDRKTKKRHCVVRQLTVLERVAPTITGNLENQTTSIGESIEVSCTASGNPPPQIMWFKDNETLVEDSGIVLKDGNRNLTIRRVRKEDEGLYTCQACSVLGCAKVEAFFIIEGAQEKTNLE
Description: In the assay, 96 well immunoplates were coated with VEG (80 ng/ml) as per standard procedures.

[5] = target: B2; test: solid-phase binding of [125I]VEGF to wells coated with TIMP3
recombinant human TIMP2 = target: T3, recombinant human TIMP2 (human, UniProt P16035 27-220); test: solid-phase binding of [125I]VEGF to wells coated with TIMP2
T3 construct: also called rTIMP2

recombinant human TIMP1 = target: T4, recombinant human TIMP1 (human, UniProt P01033 24-207); test: solid-phase binding of [125I]VEGF to wells coated with TIMP1
T4 construct: also called rTIMP1
T4 sequence (P01033 24-207 limits assumed): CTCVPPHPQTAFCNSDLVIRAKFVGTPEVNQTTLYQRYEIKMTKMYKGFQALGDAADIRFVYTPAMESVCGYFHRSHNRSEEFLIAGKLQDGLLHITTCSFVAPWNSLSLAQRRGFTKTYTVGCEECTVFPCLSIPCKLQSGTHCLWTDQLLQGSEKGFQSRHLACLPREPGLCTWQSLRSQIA

[6] = target: T5, KDR (VEGFR2) on the surface of PAE-KDR cells (human, UniProt P35968 20-1356); test: inhibition of [125I]VEGF binding to PAE-KDR cells by pretreatment with TIMP3
T5 construct: whole, on cells; also called KDR-vector
T5 sequence (P35968 20-1356): as the sequence (P35968 20-1356) above

[7] = target: T6, soluble KDR-IgG (receptor IgG chimeric protein) (UniProt P35968 20-764, limits assumed); test: solid-phase assay: displacement of [125I]VEGF165 from soluble KDR-IgG by TIMP3
T6 construct: Bought from R&D Systems; also called KDR-Fc; sKDR; not shown: IgG Fc portion
T6 sequence (P35968 20-764 limits assumed, change not shown): as the sequence (P35968 20-764 limits assumed) above
Description: Soluble KDR-Fc or FLT1-Fc (50 ng) was added to each well. […] After washing, the bound protein was solubilized with 1% SDS and 1 M NaOH and radioactivity measured in a γ-counter.

## TIMP1: recombinant human TIMP1 expressed in NSO myeloma cells [reference compound]
VEGF
  direct binding of [125I]VEGF to coated TIMP: did not detect direct binding
PAE-KDR cells
  inhibition of endothelial cell migration toward VEGF: not observed
[1]; VEGF plus inhibitor
  angiogenic index (tertiary branchpoints of capillaries): 172±8
KDR
  inhibition of binding of VEGF to PAE-KDR cells: could not inhibit the binding of VEGF to KDR

## VEGF [reference compound]
VEGFR1 (FLT-1)
  Kd: 0.015 to 0.1 nM
[1]; VEGF alone
  angiogenic index (tertiary branchpoints of capillaries): 190±5
PAEKDR cells [2]
  VEGF concentration of maximum migratory effect: 50 ng/mL
PAEKDR cells [3]
  VEGF concentration of maximum proliferative activity: 15 ng/mL
Endothelial cells
  inhibition of binding of labeled TIMP3 to the surface of endothelial cells: could inhibit the binding of labeled TIMP3

## KNECLWTDMLSNFGYPGYQSKHYACIRQKG (listed as Homo sapiens) [loop 6 peptide, synthetic peptide from loop-6 of the C-terminal region of TIMP-3]
[4]
  inhibition of CNV (fluorescein dextran, whole mount retina): inhibit CNV
KDR (VEGFR2); 3 μM
  inhibition of VEGF binding to KDR: inhibit VEGF binding

## GYCSWYRGWAPPDKSIINATDP (listed as Homo sapiens) [tail peptide, synthetic peptide from the tail portion of the C-terminal region of TIMP-3]
[4]
  inhibition of CNV (fluorescein dextran, whole mount retina): inhibit CNV
KDR (VEGFR2); 0.03 μM and 0.1 μM
  inhibition of VEGF binding to KDR at lower doses, comparison of peptides: inhibited VEGF binding better than the Loop 6 peptide and the Loop 5 peptide
KDR (VEGFR2); 3 μM
  inhibition of VEGF binding to KDR: inhibit VEGF binding
  inhibition of VEGF binding to KDR compared with recombinant TIMP-3: same levels as recombinant TIMP-3

## O=C(NO)[C@@H](Cc1ccccc1)NS(=O)(=O)c1ccc(-c2ccccc2)cc1 [MMP-2 and MMP-9 inhibitor, (2R)-[(4-biphenylylsulfonyl)amino]-N-hydroxy-3-phenylpropionamide]
KDR
  inhibition of binding of VEGF to PAE-KDR cells: could not inhibit binding of VEGF

B1: recombinant human VEGF165 (ligand, UniProt P15692-4 27-191, looked up)
chain: APMAEGGGQNHHEVVKFMDVYQRSYCHPIETLVDIFQEYPDEIEYIFKPSCVPLMRCGGCCNDEGLECVPTEESNITMQIMRIKPHQGQHIGEMSFLQHNKCECRPKKDRARQENPCGPCSERRKHLFVQDPQTCKCSCKNTDSRCKARQLELNERTCRCDKPRR
[5]
  binding result: no binding
Recombinant human TIMP2
  binding result: no binding
Recombinant human TIMP1
  binding result: no binding

## B2
[6]
  IC50: 3.3 to 4.5 µg/mL
[7]
  IC50: 2.9 µg/mL

B3: C-terminal TIMP3: chimera of residues 1-126 of TIMP-2 and residues 122-188 of TIMP3 representing the isolated C-terminal domain of TIMP3 (protein, listed as Homo sapiens)
chain: CSCSPVHPQQAFCNADVVIRAKAVSEKEVDSGNDIYGNPIKRIQYEIKQIKMFKGPEKDIEFIYTAPSSAVCGVSLDVGGKKEYLIAGKAEGDGKMHITLCDFIVPWDTLSTTQKKSLNHRYQMGCCKIKSCYYLPCFVTSKNECLWTDMLSNFGYPGYQSKHYACIRQKGGYCSWYRGWAPPDKSIINATDP
KDR (VEGFR2); preliminary studies
  inhibition of VEGF binding to KDR by TIMP3 domains: inhibits binding of VEGF to KDR
